{"source": "paper PMC2955198", "about": "(Cell, 2010)", "binders": {"B1": {"name": "purified four-protein MIND (Mtw1 including Nsl1, Nnf1, and Dsn1) kinetochore complex (complex, S. cerevisiae)", "chain 1": "MSAPTMRSTSILTEHLGYPPISLVDDIINAVNEIMYKCTAAMEKYLLSKSKIGEEDYGEEIKSGVAKLESLLENSVDKNFDKLELYVLRNVLRIPEEYLDANVFRLENQKDLVIVDENELKKSEEKLREKVNDVELAFKKNEMLLKRVTKVKRLLFTIRGFKQKLNELLKCKDDVQLQKILESLKPIDDTMTLLTDSLRKLYVDSESTSSTEEVEALLQRLKTNGKQNNKDFRTRYIDIRTNNVLRKLGLLGDKEDEKQSAKPDARTQAGDIVSIDIEEPQLDLLDDVL", "chain 2": "MSQGQSKKLDVTVEQLRSIYHQFHDILEEKTDLHLPKKEYDDDAVRREVQIQLQEFLLSAMTMASKSLEVVNADTVGKTVKQLIMESQEKYMEPFDLDLNEQVRKMYQEWEDETVKVAQLRQTGPAKINEVYNNSKDEYLAQLDGRIGVLQARMMQQQSADHDDSTDDADDHINWEHIKQDYVASLNELYQTQQDLPKVRYNVEKVKRLMDFLEED", "chain 3": "MVNSHGIRYIRLKQVFNRALDQSISKLQSWDKVSSCFPQYVNSKQGAINVANCQRQLTEFWTELCQREFKEIMEERNVEQKLNELDELILEAKERYTDRDQDEVNKGPAIDELSSKELVECHLYSQRMHAIHEIDERLAKVNEMNDQLAQELKDLETQVEVEKNEIGKMYDEYLGSHTDQPANVLLVQSLNDMVLELKENY", "chain 4": "MSLEPTQTVSGTPPMLHQRTHKQVYPLRMETIPILESDSKATLQSNEPTQKDEEETEYFENKQSVSNLSPDLKFKRHKNKHIQGFPTLGERLDNLQDIKKAKRVENFNSSAPIADDNHSGDATANATANATANATANVNASAMPAPYMPYYYYYHPMNAPTPAMIPYPGSPMHSIMPNSSLQPFYSQPTAAGGPDMTTPQNISSSQQLLPAPQLFPYGSFHQQQLQQPHYIQRTRERKKSIGSQRGRRLSMLASQANGGSTIISPHKDIPEEDFYTVVGNASFGKNLQIRQLFNWCLMRSLHKLELKAKNQEEEGELEHLTKKSKLESTKAETDYVDPKRLAMVIIKEFVDDLKKDHIAIDWEDEEKYEDEDEEKILDNTENYDDTELRQLFQENDDDDDDDDEVDYSEIQRSRRKFSERRKALPKEPKKLLPNSKNVENTKNLSILTSKVNAIKNEVKEWAVTLDTSRPDLEWQELTSFSSQPLEPLSDTEEPDLAIADVETKLETKVDELRYQSHILNSHSLALNEITNSKVNKLNIETMRKISSETDDDHSQVINPQQLLKGLSLSFSKKLDL"}}, "biological_target": "T1, Csm1/Lrs4 complex (S. cerevisiae, UniProt P25651 1-190; Q04087 1-347)", "T1 sequence (looked up) 1": "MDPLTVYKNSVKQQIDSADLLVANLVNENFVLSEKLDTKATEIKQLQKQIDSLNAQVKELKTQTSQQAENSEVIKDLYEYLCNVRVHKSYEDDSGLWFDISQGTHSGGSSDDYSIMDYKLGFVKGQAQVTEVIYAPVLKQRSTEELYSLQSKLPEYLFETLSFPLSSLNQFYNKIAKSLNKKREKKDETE", "T1 sequence (looked up) 2": "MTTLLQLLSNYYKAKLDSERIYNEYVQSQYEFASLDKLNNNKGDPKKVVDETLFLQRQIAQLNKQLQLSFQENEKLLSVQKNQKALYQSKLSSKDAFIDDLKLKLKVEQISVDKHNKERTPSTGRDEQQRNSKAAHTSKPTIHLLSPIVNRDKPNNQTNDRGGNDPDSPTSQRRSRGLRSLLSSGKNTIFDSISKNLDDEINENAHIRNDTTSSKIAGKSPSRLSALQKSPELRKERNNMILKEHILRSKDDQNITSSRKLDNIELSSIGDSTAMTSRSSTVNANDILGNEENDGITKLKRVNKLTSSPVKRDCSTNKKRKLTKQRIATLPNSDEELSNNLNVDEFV", "assay": "SEC", "data": [{"binder": "B1", "values": [{"measurement": "stoichiometry N", "result": "≤ 4 MIND complexes per Csm1/Lrs4 complex"}]}]}
